Experimental findings from patent US20250136709A1 (DEVELOPMENT CENTER FOR BIOTECHNOLOGY, published 2025) are described below.

Assay [1] concerns the target mCD73hF1-R297K (mouse; human) (UniProt Q61503). Put plainly: ELISA.
Assay [2] has as its target mouse CD73-D296E-K297R (mouse) (UniProt Q61503). Kind of assay: ELISA.
Assay [3] has as its target T1, human CD73 (human, UniProt P21589 27-549).
T1 construct: the antigen of the Biacore assay is only called human CD73 antigen; also called human CD73 antigen; Recombinant Human CD73-6xHis
T1 sequence: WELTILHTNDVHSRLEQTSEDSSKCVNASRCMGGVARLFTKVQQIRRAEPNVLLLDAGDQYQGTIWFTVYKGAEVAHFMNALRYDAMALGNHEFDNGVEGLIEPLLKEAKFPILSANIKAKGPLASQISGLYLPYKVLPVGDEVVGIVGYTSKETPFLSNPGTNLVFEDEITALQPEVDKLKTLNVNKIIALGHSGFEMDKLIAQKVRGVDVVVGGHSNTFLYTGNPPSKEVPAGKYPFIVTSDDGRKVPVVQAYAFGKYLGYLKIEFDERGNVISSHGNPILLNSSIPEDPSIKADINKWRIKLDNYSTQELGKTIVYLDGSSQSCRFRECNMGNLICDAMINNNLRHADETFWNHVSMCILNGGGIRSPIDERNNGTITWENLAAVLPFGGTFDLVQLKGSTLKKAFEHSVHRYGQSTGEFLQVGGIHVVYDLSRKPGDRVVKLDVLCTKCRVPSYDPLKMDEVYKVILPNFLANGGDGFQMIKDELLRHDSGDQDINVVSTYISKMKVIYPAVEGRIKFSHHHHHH
Kind of assay: Biacore SPR.

For assay [4], the target named is T2, human CD73 on cells (MDA-MB-231, Calu-1, KLM-1, human CD4+ T-cells) (human, UniProt P21589 27-549).
T2 sequence: T1 sequence
Put plainly: cell-based or functional assay.

For assay [5], the target named is T1, human CD73. Put plainly: Biacore SPR. The source holds these as a separate data set.
The target of assay [6] is mCD73hF1 (mouse; human) (UniProt Q61503). Put plainly: ELISA, antibody titrated; panel mCD73 hF1.
The target of a further assay is mCD73hF2 (mouse; human) (UniProt Q61503). Put plainly: ELISA, antibody titrated; panel mCD73 hF2.
Another assay addresses mCD73hF3 (mouse; human) (UniProt Q61503). Put plainly: ELISA, antibody titrated; panel mCD73 hF3.
In assay [7] the target is mCD73hF1-S269A (mouse; human) (UniProt Q61503). Kind of assay: ELISA, 10H5 titrated on the mutant protein.
Assay [8] deals with mouse CD73-D296E-K297R (mouse) (UniProt Q61503). Kind of assay: ELISA, 10H5 titrated on the mutant protein.
In assay [9] the target is mCD73hF1 (mouse; human) (UniProt Q61503). Put plainly: ELISA, antibody titrated; right panel mCD73 hF1.
A further assay deals with T3, mCD73hF4 (human; mouse, UniProt Q61503 307-551, limits assumed).
T3 construct: Mouse-human domain swapping protein, expressed in F293 cells
T3 sequence: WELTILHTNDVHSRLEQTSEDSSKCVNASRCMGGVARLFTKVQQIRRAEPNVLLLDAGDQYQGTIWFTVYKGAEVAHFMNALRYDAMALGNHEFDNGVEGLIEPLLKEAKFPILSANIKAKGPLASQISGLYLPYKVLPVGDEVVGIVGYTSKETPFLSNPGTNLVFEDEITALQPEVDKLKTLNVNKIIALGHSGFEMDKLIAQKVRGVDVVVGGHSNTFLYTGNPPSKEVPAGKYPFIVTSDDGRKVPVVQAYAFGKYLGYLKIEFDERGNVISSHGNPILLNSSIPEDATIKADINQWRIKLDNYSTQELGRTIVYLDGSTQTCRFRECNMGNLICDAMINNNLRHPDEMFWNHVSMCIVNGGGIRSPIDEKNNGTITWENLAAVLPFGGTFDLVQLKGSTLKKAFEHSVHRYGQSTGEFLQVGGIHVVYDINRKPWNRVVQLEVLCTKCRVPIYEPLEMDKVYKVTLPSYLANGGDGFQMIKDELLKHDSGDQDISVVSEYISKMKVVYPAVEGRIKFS
Kind of assay: ELISA, antibody titrated; panel mCD73 hF4.

The next assay concerns the target T4, mCD73hF1-K206A-N211G (mouse; human, UniProt Q61503 29-270; Q61503 307-551).
T4 chain: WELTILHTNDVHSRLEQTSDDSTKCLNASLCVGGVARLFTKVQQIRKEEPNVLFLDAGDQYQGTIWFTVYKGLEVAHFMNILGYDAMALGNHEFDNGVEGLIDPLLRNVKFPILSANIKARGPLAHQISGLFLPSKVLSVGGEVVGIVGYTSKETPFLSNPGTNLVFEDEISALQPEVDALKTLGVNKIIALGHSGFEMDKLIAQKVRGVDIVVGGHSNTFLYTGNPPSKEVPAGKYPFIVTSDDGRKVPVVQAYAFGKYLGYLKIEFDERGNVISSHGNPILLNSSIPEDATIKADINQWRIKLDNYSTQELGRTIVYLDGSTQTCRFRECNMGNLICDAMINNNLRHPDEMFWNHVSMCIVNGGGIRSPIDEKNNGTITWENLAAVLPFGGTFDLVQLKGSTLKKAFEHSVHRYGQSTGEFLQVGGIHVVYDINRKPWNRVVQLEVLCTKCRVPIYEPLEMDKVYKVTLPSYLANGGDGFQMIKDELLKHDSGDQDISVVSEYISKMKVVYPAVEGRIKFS
Kind of assay: ELISA, antibody titrated; panel mCD73 hF1 K206A N211G.

Bounds are passed on as bounds.

B1: 10H5 antibody (antibody, V domains shown)
VH: QVKLQQSGAELVKPGASVKISCKASGYVFSSYWINWVKQRPGKGLEWIGQIYPGDGNTNYNRNFKGKATLTADKSSSTAYMQLSSLTSEDSAVYFCAGFADWGQGTTVTVSS
VL: DIELTQSPSSLSASLGERVSLTCRASQDIGDSLIWLQQEPDGTIKRLIYATSSLDSGVPKRFSGSRSGTSYSLTISSVEAEDAATYYCQQYSGYPLTFGSGTKLEIK
notes: Mouse scFv-derived variable domains put into an expression vector with CH and CL chains (full-length chimeric antibody); also called 10H5 chimeric; 10H5 MM
In [1], B1 registered a binding affinity relative to that to mCD73hF1 of 0.1 fold. For the same molecule, the Kd came to 0.098 nM in assay [2] and 0.683 nM in the assay with human CD73 [3]. In addition, the “AMP concentration in supernatant by LC/MS, MDA-MB-231 cells, 400 µM AMP, 10 nM antibody, 6 hours” value in [4] amounted to 347 µM. Besides, the “AMP concentration in supernatant by LC/MS, MDA-MB-231 cells, 400 µM AMP, 10 nM antibody, 24 hours” value in assay [4] was found to be 290 µM. Moreover, in assay [4], the “AMP consumption, Calu-1 cells, 10 nM antibody, 24 hrs” value was below 20%. Besides, the “AMP consumption, MDA-MB-231 cells, 10 nM antibody, 6 hr” value in assay [4] was below 10%. For the same molecule, the “AMP consumption, MDA-MB-231 cells, 10 nM antibody, 24 h” value in assay [4] was below 50%. In the assay with human CD73 [5], this molecule displayed a koff of 5.78e-05 s⁻¹. This molecule showed a kon with human CD73 [5] of 84600 M⁻¹ s⁻¹. The EC50 (read off the curve) in the assay with mCD73hF1 (mouse; human) [6] came to 0.3 nM; with mCD73hF2 (mouse; human) it was 0.2 nM; with mCD73hF3 (mouse; human), 0.2 nM; in [7], 0.5 nM; in assay [8], 0.2 nM; with mCD73hF1 (mouse; human) [9], 0.3 nM. Besides, the “EC50 (read off the curve)” value in the assay with mCD73hF4 and in the assay with mCD73hF1-K206A-N211G was around 0.2 nM each time.
